In US5985833A, “Thrombin inhibitor” (Wisconsin Alumni Research Foundation, priority 1996, dated 1999):
“Also recorded” adds a separate entry of the source. Where a SMILES comes first, the peptide text is derived from it. Where no end group is shown, it is not given here. [ ]: non-standard residue; d: D form. sY = N[C@@H](Cc1ccc(OS(=O)(=O)O)cc1)C(=O)O

Columns and labels:
thrombin [1] = details: cited from earlier work
thrombin [2] = biological target: T1, thrombin (Homo sapiens, UniProt P00734); assay: Peptide inhibition of 125I-PPACK-thrombin binding to peak 1 fibrin clot; details: for IC50 / inhibition of thrombin binding to peak 1 fibrin (in words): sulfated peptides; for IC50 for inhibition of thrombin binding to peak 1 fibrin (in words): non-sulfated γ' peptides containing 416 T→V and 420 S→A substitutions, FIG. 8
T1 construct: PPACK-thrombin was prepared by adding a five-fold molar excess of PPACK (Calbiochem, San Diego, Calif.) to α-thrombin; purchased Enzyme Research Laboratories, Inc., South Bend, Ind
Protocol: To determine the capacity of the peptides to inhibit thrombin binding, a 200 μl clot containing fibrin (0.5 nmoles) and ^125 I-PPACK-thrombin (0.1 nmoles) in 0.05M HEPES, 0.10M NaCl buffer, pH 7.4, and 0.01% (w/v) polyethylene glycol 8000 was formed in the presence of varying concentrations of peptide. The amount of thrombin bound to the clot was determined by counting the ^125 I radioactivity in a gamma counter. […] For most studies, peak 1 fibrin was used to assess the inhibitory capacity of the peptides. Similar qualitative thrombin-binding results were obtained using peak 2 fibrin (FIG. 6), but higher levels of peptide were needed to inhibit binding since this molecule contains the high affinity thrombin-binding site.

thrombin [3] = biological target: T1, thrombin; assay: Peptide inhibition of 125I-PPACK-thrombin binding to peak 2 fibrin clot; details: FIG. 6

Molecule | IC50 / inhibition of thrombin binding to peak 1 fibrin (in words) (thrombin [2]; FIG. 7) | IC50 for inhibition of thrombin binding to peak 1 fibrin (in words) (thrombin [2]) | further results
fibrinogen | – | – | Km (thrombin [1]; fibrinogen peptides or fibrinogen itself, read-out: Km estimated from peptide A release): 6 to 11 µM; Kd (thrombin [1]; substrate site, read-out: Kd derived from similar kinetic studies): 1.3 to 2.6 µM
CC(C)C[C@H](NC(=O)[C@H](CC(=O)O)NC(=O)[C@H](CC(=O)O)NC(=O)[C@H](CCC(=O)O)NC(=O)[C@@H]1CCCN1C(=O)[C@H](Cc1ccc(OS(=O)(=O)O)cc1)NC(=O)[C@H](CC(C)C)NC(=O)[C@H](C)NC(=O)[C@@H](N)CCC(=O)O)C(=O)O [γ' 419-427(420A), E A L Y P E D D L] (H-EAL[sY]PEDDL-OH) | nor the carboxy-terminalγ' 419-427(420A) segment of this peptide had any significant inhibition of thrombin binding | – | –
E H P A E T E Y E S L Y P E D D L (EHPAETEYESLYPEDDL) [sulfated γ' 411-427, doubly tyrosine-sulfated native γ' peptide] | Even greater inhibitory effects | – | IC50 / inhibition of thrombin binding to peak 1 fibrin (in words) (thrombin [2]; FIG. 7, listed as γ' 411-472): similar
CC(C)[C@H](NC(=O)[C@H](CCC(=O)O)NC(=O)[C@H](C)NC(=O)[C@@H]1CCCN1C(=O)[C@H](Cc1c[nH]cn1)NC(=O)[C@H](CCC(=O)O)NC(=O)[C@@H]1CCCN1)C(=O)N[C@@H](CCC(=O)O)C(=O)N[C@@H](Cc1ccc(OS(=O)(=O)O)cc1)C(=O)O [γ' 410-418(416V), P E H P A E V E Y] (H-PEHPAEVE[sY]-OH) | neither the amino-terminal γ' 410-418(416V) nor the carboxy-terminalγ' 419-427(420A) segment of this peptide had any significant inhibition of thrombin binding | – | –
E H P A E T E F E S L Y P E D D L (EHPAETEFESLYPEDDL) [γ' 411-427/418F, tyrosine at 418 substituted with phenylalanine] | increase in IC50 compared with the doubly tyrosine-sulfated peptide; also recorded: lower IC50 than non-sulfated γ' A408-427 | – | –
PEHPAEVEYEALYPEDDL [γ' 410-427 (416V/420A)] | – | no significant increases in IC50 | –
EHPAEVEYEALYPEDDL [γ' 411-427 (416V/420A), E H P A E V E Y E A L Y P E D D L] | – | no significant increases in IC50 | –
AVRPEHPAETEYESLYPEDDL (AVRPEHPAETEYESLYPEDDL) [sulfated γ' A408-427] | similar | – | IC50 (thrombin [3]; peak 2 fibrin, tyrosine-sulfated peptides): 14 µM; inhibitory effect on thrombin binding to peak 2 fibrin (in words) (thrombin [3]; sulfated versus non-sulfated peptide): greater inhibitory effect
VRPEHPAEVEYEALYPEDDL [γ' 408-427 (416V/420A), VRPEHPAEVEYEALYPEDDL] | – | no significant increases in IC50 | –
AEVEYEALYPEDDL [γ' 414-427 (416V/420A), A E V E Y E A L Y P E D D L] | – | no significant increases in IC50; also recorded: lowest IC50 | –
